Source: US20120190039A1 (MOUNT SINAI HOSPITAL, published 2012)
One block for each molecule: values may come before it.

Key:
[1] = target: B-RAF_L487R (human B-RAF kinase domain, residues 448-723) (human) (UniProt P15056); assay: analytical ultracentrifugation, equilibrium sedimentation, self-association
[2] = target: B-RAF_L487R/E558K (human B-RAF kinase domain, residues 448-723) (human) (UniProt P15056); assay: as above
[3] = target: B-RAF_R481H (human B-RAF kinase domain, residues 448-723) (human) (UniProt P15056); assay: as above
[4] = target: MEK (overexpressed in S2 cells) (UniProt Q24324 1-396); assay: co-immunoprecipitation from S2 cells
Chain of MEK (overexpressed in S2 cells) (Q24324 whole entry): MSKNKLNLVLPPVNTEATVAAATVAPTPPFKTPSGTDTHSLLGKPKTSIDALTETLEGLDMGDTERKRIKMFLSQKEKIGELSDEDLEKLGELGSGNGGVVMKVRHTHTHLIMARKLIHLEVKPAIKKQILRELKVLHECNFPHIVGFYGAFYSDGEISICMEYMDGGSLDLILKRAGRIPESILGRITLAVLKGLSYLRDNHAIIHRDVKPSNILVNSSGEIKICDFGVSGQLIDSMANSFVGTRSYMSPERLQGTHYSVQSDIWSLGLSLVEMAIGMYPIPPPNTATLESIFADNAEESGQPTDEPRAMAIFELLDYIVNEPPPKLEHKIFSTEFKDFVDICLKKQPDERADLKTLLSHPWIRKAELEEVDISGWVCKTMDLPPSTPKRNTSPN
Protocol: S2 cells were maintained in serum-free insect cell medium (Sigma) at 27° C. Cells were seeded at a density of 1.75×10⁶ cells/ml 24 h prior to transfection. Between 10 to 300 ng (or up to 900 ng for KSR_R732H) of DNA was transfected per construct using Effectene (Qiagen). dsRNAs were produced and used in RNAi experiments as described (Roy, F., Laberge, G., Douziech, M., Ferland-McCollough, D. & Therrien, M. KSR is a scaffold required for activation of the ERK/MAPK module. Genes Dev 16, 427-38 (2002)). Protein expression was induced by adding CuSO₄ (0.7 mM) 36 h before harvesting the cells. For FRB/FKBP-mediated dimer formation, rapamycin (Sigma) was added ([…]) to the medium 2 h prior to harvesting the cells. Lysates, immunoprecipitations, western blot procedures and antibodies were essentially as previously described (Douziech, M., Sahmi, M., Laberge, G. & Therrien, M. A, KSR/CNK complex mediated by HYP, a novel SAM domain-containing protein, regulates RAS-dependent RAF activation in Drosophila, Genes Dev, 20, 807-19 (2006)).

Molecule: B-RAF_L487R/E558K (human B-RAF kinase domain, residues 448-723) (from UniProt P15056 448-723) (enzyme)
average molecular weight (global self association fit) [2]: 55500 Da
ratio of the observed average MW to the theoretical MW of the monomer [2]: 1.8

B1: KSR-RAF chimera-A (KSR 1-665 fused to RAF 417-739, K455M) (other)
chain: MSSNNNAPASAPDTGSTNANDPISGSLSVDSNLVIIQDMIDLSANHLEGLRTQCAISSTLTQQEIRCLESKLVRYFSELLLAKMRLNERIPANGLVPHTTGNELRQWLRVVGLSQGTLTACLARLTTLEQSLRLSDEEIRQLLADSPSQREEEELRRLTRAMQNLRKCMESLESGTAASNNDPEQWHWDSWDRPTHIHRGSVGNIGLGNNSTASPRTHHRQHGVKGKNSALANSTNFKSGRQSPSATEELNSTQGSQLTLTLTPSPPNSPFTPSSGLSSSLNGTPQRSRGTPPPARKHQTLLSQSHVQVDGEQLARNRLPTDPSPDSHSSTSSDIFVDPNTNASSGGSSSNVLMVPCSPGVGHVGMGHAIKHRFTKALGFMATCTLCQKQVFHRWMKCTDCKYICHKSCAPHVPPSCGLPREYVDEFRHIKEQGGYASLPHVHGAAKGSPLVKKSTLGKPLHQQHGDSSSPSSSCTSSTPSSPALFQQRERELDQAGSSSSANLLPTPSLGKHQPSQFNFPNVTVTSSGGSGGVSLISNEPVPEQFPTAPATANGGLDSLVSSSNGHMSSLIGSQTSNASTAATLTGSLVNSTTTTSTCSFFPRKLSTAGVDKRTPFTSEYTDTHKSNDSDKTVSLSGSASTDSDRTPVRVDSTEDGDSGQWRQNSSEENWNILAEEILIGPRIGSGSFGTVYRAHWHGPVAVMTLNVKTPSPAQLQAFKNEVAMLKKTRHCNILLFMGCVSKPSLAIVTQWCEGSSLYKHVHVSETKFKLNTLIDIGRQVAQGMDYLHAKNIIHRDLKSNNIFLHEDLSVKIGDFGLATAKTRWSGEKQANQPTGSILWMAPEVIRMQELNPYSFQSDVYAFGIVMYELLAECLPYGHISNKDQILFMVGRGLLRPDMSQVRSDAPQALKRLAEDCIKYTPKDRPLFRPLLNMLENMLRTLPKIHRSASEPNLTQSQLQNDEFLYLPSPKTPVNFNNFQFFGSAGNI
binding result [4]: no binding

Further lines, results first:

average molecular weight (global self association fit) [1]: 48600 Da
ratio of the observed average MW to the theoretical MW of the monomer [1]: 1.5
Molecule: B-RAF_L487R (human B-RAF kinase domain, residues 448-723) (from UniProt P15056 448-723) (enzyme)

average molecular weight (global self association fit) [3]: 34500 Da
ratio of the observed average MW to the theoretical MW of the monomer [3]: 1.1
Molecule: B-RAF_R481H (human B-RAF kinase domain, residues 448-723) (from UniProt P15056 448-723) (enzyme)
